Test results from the Immune Epitope Database (IEDB).

Assays:
[1] = molecular target: HLA-A*03:01; assay: IEDB peptide-MHC binding, purified MHC/direct/fluorescence; filed as Kd, often an IC50 or EC50 that approximates it; ≥ and ≤ were set here for values at or beyond the usual limits of such assays
[2] = molecular target: HLA-A*26:01; assay: as above
[3] = molecular target: HLA-B*15:01; assay: as above
[4] = molecular target: HLA-B*18:01; assay: as above
[5] = molecular target: HLA-B*27:03; assay: as above
[6] = molecular target: HLA-B*39:01; assay: as above
[7] = molecular target: HLA-B*46:01; assay: as above
[8] = molecular target: HLA-B*51:01; assay: as above
[9] = molecular target: HLA-C*12:03; assay: as above
[10] = molecular target: HLA-A*01:01; assay: as above
[11] = molecular target: HLA-A*11:01; assay: as above
[12] = molecular target: HLA-A*31:01; assay: as above
[13] = molecular target: HLA-B*07:02; assay: as above
[14] = molecular target: HLA-B*08:01; assay: as above
[15] = molecular target: HLA-B*27:05; assay: as above
[16] = molecular target: HLA-B*40:01; assay: as above
[17] = molecular target: HLA-B*58:01; assay: as above
[18] = molecular target: HLA-C*03:03; assay: as above; details: source organism: SARS-CoV1
[19] = molecular target: HLA-C*08:02; assay: as above
[20] = molecular target: HLA-C*14:02; assay: as above; details: source organism: SARS-CoV1
[21] = molecular target: HLA-C*15:02; assay: as above; details: source organism: SARS-CoV1
[22] = molecular target: HLA-B*46:01; assay: IEDB peptide-MHC binding, purified MHC/competitive/fluorescence; filed as Kd, often an IC50 or EC50 that approximates it; ≥ and ≤ were set here for values at or beyond the usual limits of such assays; details: source organism: SARS-CoV1
[23] = molecular target: HLA-A*02:01; assay: IEDB peptide-MHC binding, purified MHC/direct/fluorescence; filed as Kd, often an IC50 or EC50 that approximates it; ≥ and ≤ were set here for values at or beyond the usual limits of such assays
[24] = molecular target: HLA-A*02:03; assay: as above
[25] = molecular target: HLA-A*02:11; assay: as above; details: source organism: Yersinia pestis CA88-4125
[26] = molecular target: HLA-A*02:12; assay: as above
[27] = molecular target: HLA-A*02:16; assay: as above
[28] = molecular target: HLA-A*02:19; assay: as above
[29] = molecular target: HLA-B*57:01; assay: as above
[30] = molecular target: HLA-A*69:01; assay: as above
[31] = molecular target: HLA-B*44:02; assay: as above; details: source organism: Brucella melitensis
[32] = molecular target: HLA-B*73:01; assay: as above; details: source organism: Brucella suis 1330
[33] = molecular target: HLA-B*48:01; assay: as above
[34] = molecular target: HLA-C*06:02; assay: as above; details: source organism: Kurkino virus
[35] = molecular target: HLA-C*07:02; assay: as above; details: source organism: Kurkino virus
[36] = molecular target: HLA-B*15:02; assay: IEDB peptide-MHC binding, purified MHC/competitive/fluorescence; filed as Kd, often an IC50 or EC50 that approximates it; ≥ and ≤ were set here for values at or beyond the usual limits of such assays
[37] = molecular target: HLA-A*68:02; assay: IEDB peptide-MHC binding, purified MHC/direct/fluorescence; filed as Kd, often an IC50 or EC50 that approximates it; ≥ and ≤ were set here for values at or beyond the usual limits of such assays; details: source organism: H9N2 subtype Influenza A virus (A/swine/Korea/S83/2004(H9N2))
[38] = molecular target: HLA-B*15:02; assay: as above; details: source organism: H9N2 subtype Influenza A virus (A/swine/Korea/S83/2004(H9N2))
[39] = molecular target: HLA-B*15:17; assay: as above; details: source organism: H9N2 subtype Influenza A virus (A/swine/Korea/S83/2004(H9N2))
[40] = molecular target: HLA-A*02:03; assay: IEDB peptide-MHC binding, purified MHC/competitive/fluorescence; filed as Kd, often an IC50 or EC50 that approximates it; ≥ and ≤ were set here for values at or beyond the usual limits of such assays; details: source organism: Influenza A virus H3N2
[41] = molecular target: HLA-A*26:02; assay: as above; details: source organism: Influenza A virus H3N2
[42] = molecular target: HLA-B*08:01; assay: as above; details: source organism: Influenza A virus H3N2
[43] = molecular target: HLA-B*27:05; assay: as above; details: source organism: Influenza A virus H3N2
[44] = source organism: Coxiella burnetii Q321
[45] = source organism: Yersinia pestis CA88-4125
[46] = source organism: Brucella melitensis
[47] = source organism: Orthohantavirus dobravaense
[48] = source organism: Yersinia enterocolitica subsp. enterocolitica 8081
[49] = source organism: H9N2 subtype Influenza A virus (A/swine/Korea/S83/2004(H9N2))
[50] = source organism: Bacillus cereus

IAFTRLFTV was tested, and the Kd [1, 44] was ≥ 20 µM, the Kd [2, 44] was ≥ 20 µM and the Kd [3, 44] was ≥ 20 µM. For the same sequence, the Kd [4, 44] was ≥ 20 µM, the Kd [5, 44] was ≥ 20 µM and the Kd [6, 44] was ≥ 20 µM. The Kd [7, 44] was ≥ 20 µM, the Kd [8, 44] was 3.24 µM and the Kd ([9]; source organism: Coxiella burnetii RSA 493) was ≤ 0.001 µM.
KSYEHQTPF was tested, and the Kd ([10]; source organism: SARS-CoV1) was ≥ 27.1 µM, the Kd ([1]; source organism: SARS-CoV1) was 0.0898 µM and the Kd ([11]; source organism: SARS-CoV1) was 0.837 µM. The Kd ([12]; source organism: SARS-CoV1) was 0.186 µM, the Kd ([13]; source organism: SARS-CoV1) was 5.72 µM and the Kd ([14]; source organism: SARS-CoV1) was 14.4 µM. The Kd ([3]; source organism: SARS-CoV1) was 0.169 µM, the Kd ([15]; source organism: SARS-CoV1) was 4.42 µM and the Kd ([16]; source organism: SARS-CoV1) was ≥ 91.4 µM. The Kd ([17]; source organism: SARS-CoV1) was 0.088 µM, the Kd [18] was 0.035 µM and the Kd ([19]; source organism: SARS-CoV1) was ≥ 20 µM. It also gave a Kd ([9]; source organism: SARS-CoV1) of 0.014 µM, a Kd [20] of 0.093 µM and a Kd [21] of 0.011 µM. For the same sequence, the Kd [22] was 0.0469 µM.
With KLLARFLFE the Kd [23, 45] was ≥ 20 µM, the Kd [24, 45] was ≥ 20 µM and the Kd [25] was ≥ 20 µM. For the same sequence, the Kd [26, 45] was ≥ 20 µM, the Kd [27, 45] was ≥ 20 µM and the Kd [28, 45] was ≥ 20 µM. For the same sequence, the Kd [1, 45] was ≥ 20 µM, the Kd [2, 45] was ≥ 20 µM and the Kd [3, 45] was ≥ 20 µM. For the same sequence, the Kd [4, 45] was ≥ 20 µM, the Kd [5, 45] was ≥ 20 µM and the Kd [6, 45] was ≥ 20 µM. For the same sequence, the Kd [7, 45] was ≥ 20 µM, the Kd [8, 45] was ≥ 20 µM and the Kd [29, 45] was ≥ 20 µM.
In the case of RVISDGYFK, the Kd [10, 46] is reported as ≥ 20 µM, the Kd [23, 46] is reported as ≥ 20 µM and the Kd [1, 46] is reported as 0.395 µM. The Kd [11, 46] was 0.0538 µM, the Kd [2, 46] was ≥ 20 µM and the Kd [12, 46] was 0.042 µM. The Kd [30, 46] was ≥ 20 µM, the Kd [13, 46] was ≥ 20 µM and the Kd [14, 46] was ≥ 20 µM. For the same sequence, the Kd [3, 46] was ≥ 20 µM, the Kd [15, 46] was 7.19 µM and the Kd [16, 46] was ≥ 20 µM. For the same sequence, the Kd [31] was ≥ 20 µM, the Kd [17, 46] was ≥ 20 µM and the Kd [32] was ≥ 20 µM.
For RRNDGVVQY, the Kd [15, 47] was 0.146 µM, the Kd [33, 47] was ≥ 20 µM and the Kd [34] was 0.061 µM. The Kd [35] was 0.029 µM.
LLRMFDHPF showed a Kd ([36]; source organism: Vibrio vulnificus YJ016) of 0.0209 µM.
In the case of LAYLAGWII, the Kd [23, 48] is reported as ≥ 20 µM, the Kd [24, 48] is reported as ≥ 20 µM and the Kd [26, 48] is reported as ≥ 20 µM. The Kd [27, 48] was ≥ 20 µM, the Kd [28, 48] was ≥ 20 µM and the Kd [1, 48] was ≥ 20 µM. For the same sequence, the Kd [2, 48] was ≥ 20 µM, the Kd [3, 48] was ≥ 20 µM and the Kd [4, 48] was ≥ 20 µM. For the same sequence, the Kd [5, 48] was ≥ 20 µM, the Kd [6, 48] was ≥ 20 µM and the Kd [7, 48] was ≥ 20 µM. The Kd [8, 48] was 1.39 µM.
In the case of FQKDAKVLF, the Kd [10, 49] is reported as ≥ 20 µM, the Kd [23, 49] is reported as ≥ 20 µM and the Kd [11, 49] is reported as ≥ 20 µM. The Kd [12, 49] was ≥ 20 µM, the Kd [37] was ≥ 20 µM and the Kd [30, 49] was ≥ 20 µM. The Kd [13, 49] was ≥ 20 µM, the Kd [3, 49] was 0.116 µM and the Kd [38] was 1.72 µM. For the same sequence, the Kd [39] was ≥ 20 µM, the Kd ([6]; source organism: Influenza A virus(A/swine/Shandong/fZC/2003(H9N2))) was ≥ 20 µM and the Kd [7, 49] was ≥ 20 µM. The Kd [33, 49] was 0.99 µM, the Kd [29, 49] was ≥ 20 µM and the Kd [17, 49] was ≥ 20 µM. For the same sequence, the Kd [40] was ≥ 20 µM, the Kd [41] was ≥ 20 µM and the Kd [42] was ≥ 20 µM. The Kd [43] was 3.34 µM.
LQLARDGMF was tested, and the Kd ([36]; source organism: Brucella suis ATCC 23445) was ≥ 20 µM.
For YTLNDAPYI, the Kd [23, 50] was 0.0381 µM, the Kd [30, 50] was 0.0024 µM and the Kd ([19]; source organism: Bacillus anthracis str. A0389) was 0.181 µM.
